Data set [1] can be described thus: Inhibition of [14C]BAF312 biotransformation in HLM by CYP-specific chemical inhibitors. Particulars: for Rate / Relative activity: 5 μM BAF312, HLM 0.1 mg/mL, 90 min. The method, then:
The incubations were carried out in 0.1 M phosphate buffer, pH 7.4. Typical incubations of 200 (or 400) μL total volume were prepared as follows: 10 μL of 100 mM MgCl2 (5 mM), stock solutions of CHAPS, substrate and microsomes or recombinant human cytochrome P450 isoenzymes were added to appropriate volume of the buffer. […] Reaction was started by addition of 20 μL of a fresh 10 mM NADPH (1 mM). The final concentrations are given in parentheses. The final concentrations of organic solvent were maximally 0.5% (v/v). For some experiments, higher incubation volumes were prepared by keeping proportionally the quantity of all solutions. The samples were incubated at 37° C. in a thermomixer (Eppendorf 5355) with agitation at 500 rpm.
The incubation reactions were stopped and the protein was precipitated by addition of an equal volume of ice-cold 0.5% formic acid in acetonitrile. After 30 min at −80° C. (or overnight at −20° C.) the samples were centrifuged at 30,000×g for 15 min. The supernatant was withdrawn. Aliquots were analyzed by LSC (20 μL) and the supernatant was diluted appropriately with water to obtain a final solution containing less than 30% of acetonitrile. For samples with lower concentration in substrate, supernatants were evaporated to about the half of initial volumes under reduced pressure at 40° C. with SpeedVac® concentrator (model AES 2010, Savant Inc., Holbrook, N.Y., USA) then mixed with 0.5% formic acid in acetonitrile to obtain a final solution containing less 30% of acetonitrile. Sample solutions were analyzed by HPLC combined with radiodetection. (for HLPC method, see Section 1.6)
The biotransformation of BAF312 was tested at 5 μM substrate concentration in the presence of the 8 individual chemical inhibitors.

Substrate in data set [2]: CCc1cc(/C(C)=N/OCc2ccc(C3CCCCC3)c(C(F)(F)F)c2)ccc1CN1CC(C(=O)O)C1
Briefly: Enzyme mapping: metabolite formation by recombinant P450 isoenzyme. It counts as in vitro ADME, human. The settings on record: estimated by solving the Michaelis-Menten equation for the 2 substrate concentrations, pH 7.4. Here is the method: (§1) Microsomes prepared from baculovirus infected insect cells (BTI-TN-5B1-4) expressing the following human P450 enzymes and the insect cell membrane preparations (negative control) were obtained from BD Biosciences (Woburn, Mass., USA).
(§2) The final concentrations are given in parentheses.
(§3) After 30 min at −80° C. […] The supernatant was withdrawn. […] Sample solutions were analyzed by HPLC combined with radiodetection. (for HLPC method, see Section 1.6)
Mean specific CYP enzyme concentrations in human liver microsomes were obtained from literature values (Rowland Yeo K, Rostami-Hodjegan A and Trucker GT (2004)] Abundance of cytochromes P450 in human liver: a meta-analysis. Br. J. Clinical Pharmacology; 57:687-688). For some recombinant human CYPs, the enzyme kinetic parameters were estimated by calculation assuming Michaelis-Menten type behavior for the two concentrations used, solving a linear equation system for 2 linear equations with 2 variables: […]
Microsomes prepared from baculovirus infected insect cells (BTI-TN-5B1-4) expressing one single human cytochrome P450 isoenzyme were used to assess the involvement of specific enzymes in the biotransformation of [14C]BAF312. Incubation experiments with a panel of 21 recombinant human CYPs (CYP1A1, 1A2, 1B1, 2A6, 2B6, 2C8, 2C9*1, 2C18, 2C19, 2D6*1, 2E1, 2J2, 3A4, 3A5, 3A7, 4A11, 4F2, 4F3A, 4F3B, 4F12 and CYP19) were conducted under similar conditions for each isoenzyme with 10 and 40 μM BAF312 incubation and 30 pmol CYP/mL for 30 min. […] Lower metabolism activities were also observed in incubation with CYP3A4, while some trace metabolism was detected with other CYP isoenzymes (2B6, 2C8, 2C19, 2J2, 3A5, 1A1).

Substrate in data set [3]: CCc1cc(/C(C)=N/OCc2ccc(C3CCCCC3)c(C(F)(F)F)c2)ccc1CN1CC(C(=O)O)C1
In words: Enzyme kinetics of [14C]BAF312 metabolism by rhCYP2C9. It counts as in vitro ADME, human. Particulars: other: CYP 2C9; obtained from kinetic experiments; pH 7.4. Here is the method: The concentration-dependent kinetics of [^14C]BAF312 biotransformation (total metabolites) in rhCYP2C9 (50 pmol/mL) after 60 minutes incubation was plotted as Michaelis-Menten plot (upper) and as Eadie-Hofstee plot (V vs. V/S, bottom) fitted with substrate inhibition model using substrate concentrations 5-300 μM.
as §1, §2, §3
Enzyme kinetic parameters Vmax and Km of the biotransformation by HLM and major metabolizing enzymes were calculated by using SigmaPlot Version 8.0 (S1), Enzyme Kinetics module Version 1.1 software (SPSS Science Inc., Chicago, Ill., USA). The intrinsic clearance was calculated by the equation: CLint=Vmax/Km.
Enzyme kinetics parameters of the isoenzymes CYP2C9 and CYP3A4 for BAF312 metabolism were determined by incubating different concentrations of [^14C]BAF312 with the isoenzyme.

As to `N[C@@H]1C[C@H]1c1ccccc1` (racemic) [Tranylcypromine], in data set [1] (2 μM and 10 μM inhibitor, 5 μM substrate concentration, HLM), the “inhibition of BAF312 metabolism” value is 11-29%. Moreover, in data set [1] (2 μM inhibitor), the Rate is 15.3 pmol/min/mg and the Relative activity is recorded as 89%. For the same molecule, in data set [1] (10 μM inhibitor), the Rate is recorded as 12.2 pmol/min/mg and the Relative activity came out at 71%.

`S=P(N1CC1)(N1CC1)N1CC1` [Triethylenethiophosphoramide]: the results for the Rate in data set [1] (5 μM inhibitor) and in data set [1] (20 μM inhibitor) were 18.3 pmol/min/mg and 18.8 pmol/min/mg, respectively. The values for the Relative activity in data set [1] (5 μM inhibitor) and in data set [1] (20 μM inhibitor) were 106% and 109%, respectively.

B1: CYP1A1 (Homo sapiens) (protein)
chain: MLFPISMSATEFLLASVIFCLVFWVIRASRPQVPKGLKNPPGPWGWPLIGHMLTLGKNPHLALSRMSQQYGDVLQIRIGSTPVVVLSGLDTIRQALVRQGDDFKGRPDLYTFTLISNGQSMSFSPDSGPVWAARRRLAQNGLKSFSIASDPASSTSCYLEEHVSKEAEVLISTLQELMAGPGHFNPYRYVVVSVTNVICAICFGRRYDHNHQELLSLVNLNNNFGEVVGSGNPADFIPILRYLPNPSLNAFKDLNEKFYSFMQKMVKEHYKTFEKGHIRDITDSLIEHCQEKQLDENANVQLSDEKIINIVLDLFGAGFDTVTTAISWSLMYLVMNPRVQRKIQEELDTVIGRSRRPRLSDRSHLPYMEAFILETFRHSSFVPFTIPHSTTRDTSLKGFYIPKGRCVFVNQWQINHDQKLWVNPSEFLPERFLTPDGAIDKVLSEKVIIFGMGKRKCIGETIARWEVFLFLAILLQRVEFSVPLGVKVDMTPIYGLTMKHACCEHFQMQLRS
notes: purchased BD Biosciences 456211; host or cells: baculovirus infected insect cells (BTI-TN-5B1-4)
With B1, in data set [2] (other: CYP 1A1), the Km was 25.5 µM, the kcat is 47.3 pmol/(min · nmol CYP) and the kcat/Km was 1.9 μL/(min. · nmol CYP).

B2: CYP2C8 (Homo sapiens) (protein)
chain: MEPFVVLVLCLSFMLLFSLWRQSCRRRKLPPGPTPLPIIGNMLQIDVKDICKSFTNFSKVYGPVFTVYFGMNPIVVFHGYEAVKEALIDNGEEFSGRGNSPISQRITKGLGIISSNGKRWKEIRRFSLTTLRNFGMGKRSIEDRVQEEAHCLVEELRKTKASPCDPTFILGCAPCNVICSVVFQKRFDYKDQNFLTLMKRFNENFRILNSPWIQVCNNFPLLIDCFPGTHNKVLKNVALTRSYIREKVKEHQASLDVNNPRDFIDCFLIKMEQEKDNQKSEFNIENLVGTVADLFVAGTETTSTTLRYGLLLLLKHPEVTAKVQEEIDHVIGRHRSPCMQDRSHMPYTDAVVHEIQRYSDLVPTGVPHAVTTDTKFRNYLIPKGTTIMALLTSVLHDDKEFPNPNIFDPGHFLDKNGNFKKSDYFMPFSAGKRICAGEGLARMELFLFLTTILQNFNLKSVDDLKNLNTTAVTKGIVSLPPSYQICFIPV
notes: purchased BD Biosciences 456252; host or cells: baculovirus infected insect cells (BTI-TN-5B1-4)
Turning to B2, in data set [2] (other: CYP 2C8), the Michaelis-Menten constant (Km) was 2.9 µM, the kcat is given as 14.3 pmol/(min · nmol CYP) and the kcat/Km is reported as 5 μL/(min. · nmol CYP).

B3: rhCYP2C9 (Homo sapiens) (protein)
chain: MDSLVVLVLCLSCLLLLSLWRQSSGRGKLPPGPTPLPVIGNILQIGIKDISKSLTNLSKVYGPVFTLYFGLKPIVVLHGYEAVKEALIDLGEEFSGRGIFPLAERANRGFGIVFSNGKKWKEIRRFSLMTLRNFGMGKRSIEDRVQEEARCLVEELRKTKASPCDPTFILGCAPCNVICSIIFHKRFDYKDQQFLNLMEKLNENIKILSSPWIQICNNFSPIIDYFPGTHNKLLKNVAFMKSYILEKVKEHQESMDMNNPQDFIDCFLMKMEKEKHNQPSEFTIESLENTAVDLFGAGTETTSTTLRYALLLLLKHPEVTAKVQEEIERVIGRNRSPCMQDRSHMPYTDAVVHEVQRYIDLLPTSLPHAVTCDIKFRNYLIPKGTTILISLTSVLHDNKEFPNPEMFDPHHFLDEGGNFKKSKYFMPFSAGKRICVGEALAGMELFLFLTSILQNFNLKSLVDPKNLDTTPVVNGFASVPPFYQLCFIPV
notes: purchased BD Biosciences 456258; host or cells: baculovirus infected insect cells (BTI-TN-5B1-4)
As to B3, in data set [3], the Km came out at 34.5 µM, the kcat is recorded as 2596 ± 233 pmol/min/nmol and the kcat/Km was 1250 M⁻¹ s⁻¹.

B4: CYP2J2 (Homo sapiens) (protein)
chain: MLAAMGSLAAALWAVVHPRTLLLGTVAFLLAADFLKRRRPKNYPPGPWRLPFLGNFFLVDFEQSHLEVQLFVKKYGNLFSLELGDISAVLITGLPLIKEALIHMDQNFGNRPVTPMREHIFKKNGLIMSSGQAWKEQRRFTLTALRNFGLGKKSLEERIQEEAQHLTEAIKEENGQPFDPHFKINNAVSNIICSITFGERFEYQDSWFQQLLKLLDEVTYLEASKTCQLYNVFPWIMKFLPGPHQTLFSNWKKLKLFVSHMIDKHRKDWNPAETRDFIDAYLKEMSKHTGNPTSSFHEENLICSTLDLFFAGTETTSTTLRWALLYMALYPEIQEKVQAEIDRVIGQGQQPSTAARESMPYTNAVIHEVQRMGNIIPLNVPREVTVDTTLAGYHLPKGTMILTNLTALHRDPTEWATPDTFNPDHFLENGQFKKREAFMPFSIGKRACLGEQLARTELFIFFTSLMQKFTFRPPNNEKLSLKFRMGITISPVSHRLCAVPQV
notes: purchased BD Biosciences 456264; host or cells: baculovirus infected insect cells (BTI-TN-5B1-4)
In the case of B4, in data set [2] (other: CYP 2J2), the Michaelis constant (Km) is 374 µM, the kcat was 106.7 pmol/(min · nmol CYP) and the kcat/Km is 0.3 μL/(min. · nmol CYP).

B5: CYP2C19 (Homo sapiens) (protein)
chain: MDPFVVLVLCLSCLLLLSIWRQSSGRGKLPPGPTPLPVIGNILQIDIKDVSKSLTNLSKIYGPVFTLYFGLERMVVLHGYEVVKEALIDLGEEFSGRGHFPLAERANRGFGIVFSNGKRWKEIRRFSLMTLRNFGMGKRSIEDRVQEEARCLVEELRKTKASPCDPTFILGCAPCNVICSIIFQKRFDYKDQQFLNLMEKLNENIRIVSTPWIQICNNFPTIIDYFPGTHNKLLKNLAFMESDILEKVKEHQESMDINNPRDFIDCFLIKMEKEKQNQQSEFTIENLVITAADLLGAGTETTSTTLRYALLLLLKHPEVTAKVQEEIERVIGRNRSPCMQDRGHMPYTDAVVHEVQRYIDLIPTSLPHAVTCDVKFRNYLIPKGTTILTSLTSVLHDNKEFPNPEMFDPRHFLDEGGNFKKSNYFMPFSAGKRICVGEGLARMELFLFLTFILQNFNLKSLIDPKDLDTTPVVNGFASVPPFYQLCFIPV
notes: purchased BD Biosciences 456259; host or cells: baculovirus infected insect cells (BTI-TN-5B1-4)
As for B5, in data set [2] (other: CYP 2C19), the Km is 140 µM, the kcat is given as 100 pmol/(min · nmol CYP) and the kcat/Km is on record as 0.7 μL/(min. · nmol CYP).

By Km is commonly meant the concentration of substrate that gives half-maximal velocity. For orientation: kcat/Km means the turnover number divided by the Michaelis constant.

The record behind these values is patent US20160046573A1, “IDENTIFYING PATIENT RESPONSE TO S1P RECEPTOR MODULATOR ADMINISTRATION” (Novartis AG, priority 2013, published 2016).
